# Values quoted from earlier work, collected in article PMC4134939.
# Target: ubiquitin (Homo sapiens) (UniProt P0CG47)
# Chain of DNA polymerase iota UBM1 (Q9UNA4 513-557): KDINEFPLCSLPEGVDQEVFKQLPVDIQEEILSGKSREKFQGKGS
substance,measurement,value
DNA polymerase iota UBM1 (from UniProt Q9UNA4),Kd,130 µM
